Measured values reported in patent US20240360203A1.
Like-named read-outs stand apart in the source and are kept apart here.

Key:
[1] = biological target: T1, SARS-CoV-2 spike S2 peptide 1143-1162, biotinylated (SARS-CoV-2); assay: SPR, Fab over captured biotin-peptide, 25 C
[2] = biological target: T2, SARS-CoV-2 spike S2 peptide 1149-1167, biotinylated (SARS-CoV-2); assay: SPR, Fab over captured biotin-peptide, 25 C
[3] = biological target: T2, SARS-CoV-2 spike S2 peptide 1149-1167, …; assay: SPR, Fab over captured biotin-peptide, 25 C; remark: listed apart in the source
[4] = biological target: HIV-1 Env peptide, biotinylated (negative control) (HIV-1); assay: DELFIA on captured biotin-peptide; design: unit not given beside the values
[5] = biological target: T1, SARS-CoV-2 spike S2 peptide 1143-1162, …; assay: DELFIA on captured biotin-peptide; design: unit not given beside the values
[6] = biological target: T2, SARS-CoV-2 spike S2 peptide 1149-1167, …; assay: DELFIA on captured biotin-peptide; design: unit not given beside the values

Row | Binder | Kd [1] | koff [1] | kon [1] | Kd [2] | koff [2] | kon [2] | Kd [3] | AUC [4] | AUC [5] | AUC [6]
1 | AB-1 Fab (Fab, V domains shown) VH: EVQLVESGAEVKKPGESLKISCKGSGYTFTRYWIGWVRQMPGKGLEWMGIIYPGDSDVRYSPSFQGHVTISADKSISTAYLQWNSLKASDTAMYYCARLPQYCSKGVCYRWFDPWGQGTLVTVSS VL: EIVLTQSPSSVSASVGDRVTITCRASQGISSWLAWYQQKPGKAPKLLIYAASSLQSGVPSRFSGSGSGTDFTLTISSLQPEDFATYYCQQGHSFPYTFGQGTNLEIK | 12.3 nM | 0.037 s⁻¹ | 3e+06 M⁻¹ s⁻¹ | 0.9 nM | 0.00241 s⁻¹ | 2.61e+06 M⁻¹ s⁻¹ | 0.925 nM | – | – | –
2 | Reference Antibody Fab (Fab, V domains shown) VH: EVQLVESGAEVKKPGESLKISCKGSGYTFTRYWIGWVRQMPGKGLEWMGIIYPGDSDTRYSPSFQGHVTISADKSISTAYLQWNSLKASDTAMYYCARLPQYCSNGVCQRWFDPWGQGTLVTVSS VL: EIVLTQSPSSVSASVGDRVTITCRASQGISSWLAWYQQKPGKAPKLLIYAASSLQSGVPSRFSGSGSGTDFTLTISSLQPEDFATYYCQQGNSFPYTFGQGTNLEIK | – | – | – | 5.4 nM | 0.00498 s⁻¹ | 929000 M⁻¹ s⁻¹ | 5.36 nM | – | – | –
3 | AB-1 (antibody, V domains shown) VH: EVQLVESGAEVKKPGESLKISCKGSGYTFTRYWIGWVRQMPGKGLEWMGIIYPGDSDVRYSPSFQGHVTISADKSISTAYLQWNSLKASDTAMYYCARLPQYCSKGVCYRWFDPWGQGTLVTVSS VL: EIVLTQSPSSVSASVGDRVTITCRASQGISSWLAWYQQKPGKAPKLLIYAASSLQSGVPSRFSGSGSGTDFTLTISSLQPEDFATYYCQQGHSFPYTFGQGTNLEIK | – | – | – | – | – | – | – | 9860 | 3.52e+06 | 3.27e+06
4 | Reference Antibody (antibody, V domains shown) VH: EVQLVESGAEVKKPGESLKISCKGSGYTFTRYWIGWVRQMPGKGLEWMGIIYPGDSDTRYSPSFQGHVTISADKSISTAYLQWNSLKASDTAMYYCARLPQYCSNGVCQRWFDPWGQGTLVTVSS VL: EIVLTQSPSSVSASVGDRVTITCRASQGISSWLAWYQQKPGKAPKLLIYAASSLQSGVPSRFSGSGSGTDFTLTISSLQPEDFATYYCQQGNSFPYTFGQGTNLEIK | – | – | – | – | – | – | – | 16100 | – | 3.05e+06
